Measured values reported in US5328898A, “Factor XIIIA fibrin binding fragments” (Duke University, priority 1990, dated 1994).
Values belong to the substance of their own block, whether it stands above or below them. Ends that are not written are not given here.

What was measured:
fibrin [1] = molecular target: T1, fibrin (Homo sapiens, UniProt P02671+P02675+P02679); experiment: Inhibition of 125I-DDAVY. . . peptide binding to fibrin (competition)
T1 construct: the mixture was clotted by the addition of 10 U/mL of thrombin; After 10 minutes at 37° C., the fibrin was compressed
T1 sequence (P02671 36-629 isoform P02671-2 limits assumed): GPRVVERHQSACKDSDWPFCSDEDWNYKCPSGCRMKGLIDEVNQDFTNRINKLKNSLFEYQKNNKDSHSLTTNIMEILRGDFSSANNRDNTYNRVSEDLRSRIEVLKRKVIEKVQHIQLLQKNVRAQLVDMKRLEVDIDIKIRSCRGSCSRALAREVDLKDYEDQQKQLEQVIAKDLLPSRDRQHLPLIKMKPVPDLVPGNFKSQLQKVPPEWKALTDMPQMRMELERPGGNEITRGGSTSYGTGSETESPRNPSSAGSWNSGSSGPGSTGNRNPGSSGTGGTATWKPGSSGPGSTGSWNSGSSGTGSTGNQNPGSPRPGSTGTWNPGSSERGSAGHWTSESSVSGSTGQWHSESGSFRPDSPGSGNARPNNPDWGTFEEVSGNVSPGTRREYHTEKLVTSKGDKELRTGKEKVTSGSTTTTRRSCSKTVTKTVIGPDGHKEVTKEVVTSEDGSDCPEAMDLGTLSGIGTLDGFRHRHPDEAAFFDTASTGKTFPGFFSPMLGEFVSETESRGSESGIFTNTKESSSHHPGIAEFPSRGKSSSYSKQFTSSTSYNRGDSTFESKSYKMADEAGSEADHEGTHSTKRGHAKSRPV
T1 sequence (P02675 45-491 limits assumed): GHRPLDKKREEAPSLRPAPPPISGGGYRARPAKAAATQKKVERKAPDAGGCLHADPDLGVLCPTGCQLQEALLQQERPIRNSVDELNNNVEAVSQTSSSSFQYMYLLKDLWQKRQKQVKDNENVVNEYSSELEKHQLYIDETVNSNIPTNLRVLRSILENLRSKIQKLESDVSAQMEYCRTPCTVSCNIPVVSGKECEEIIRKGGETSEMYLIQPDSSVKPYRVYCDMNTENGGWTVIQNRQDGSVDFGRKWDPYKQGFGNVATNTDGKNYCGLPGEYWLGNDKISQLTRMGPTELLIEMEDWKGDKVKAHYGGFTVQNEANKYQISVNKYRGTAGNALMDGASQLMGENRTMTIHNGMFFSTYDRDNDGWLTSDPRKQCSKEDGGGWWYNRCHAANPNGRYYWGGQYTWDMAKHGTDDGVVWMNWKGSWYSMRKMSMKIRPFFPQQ
T1 sequence (P02679 27-437 isoform P02679-2 limits assumed): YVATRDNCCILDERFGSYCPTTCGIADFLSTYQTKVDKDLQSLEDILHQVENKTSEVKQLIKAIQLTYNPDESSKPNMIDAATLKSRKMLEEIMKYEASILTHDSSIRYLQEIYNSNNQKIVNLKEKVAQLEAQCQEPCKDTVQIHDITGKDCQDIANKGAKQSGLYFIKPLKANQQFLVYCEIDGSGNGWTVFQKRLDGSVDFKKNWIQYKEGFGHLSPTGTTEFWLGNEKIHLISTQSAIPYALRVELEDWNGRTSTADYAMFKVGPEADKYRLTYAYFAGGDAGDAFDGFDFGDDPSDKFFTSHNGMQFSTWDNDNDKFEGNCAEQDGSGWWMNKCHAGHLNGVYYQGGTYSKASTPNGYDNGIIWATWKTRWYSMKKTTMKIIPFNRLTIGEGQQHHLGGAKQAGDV
Experimental: (§1) Binding of radiolabeled DDAVY. . . peptide prepared in accordance with Example 3 above was conducted in the presence of the following proteins: human albumin (Kabi), bovine serum albumin (BSA), hemoglobin, and cytochrome C. Fibrin binding was performed by incubating 0.5 mg/mL fibrinogen, 0.1% Triton X-100, 0.15M NaCl, 0.1M Tris, pH 7.4 (TBS), 10 mM CaCl2, and ^125 I-labeled DDAVY. . . peptide and the mixture was clotted by the addition of 10 U/mL of thrombin. After 10 minutes at 37° C., the fibrin was compressed by centrifugation (10-12,000 rpm for 10 minutes), washed thrice with TBS and the bound radioactivity was quantitated using a gamma Counter. Proteins were included in the binding mixture at these concentrations: hemoglobin (100 micromolar); human albumin (Kabi) (100 micromolar); and cytochrome C (500 micromolar). Fibrin concentration was approximately 1.0 micromolar.
Purified recombinant platelet Factor XIII A-chains were used to inhibit the binding of DDAVY. . . peptide to fibrin. At a concentration of 0.4 mg/mL fibrinogen, 2.0 mg/mL of recombinant platelet Factor XIII inhibited the binding of DDAVY. . . peptide to fibrin by 76%. In another experiment, purified placental Factor XIII A-chains were used to inhibit DDAVY. . . peptide binding to fibrin. Binding was conducted in the presence of 1.0 mg/mL fibrinogen, 5 nanomoles of placental Factor XIII and approximately 0.05 nanomoles of the DDAVY. . . peptide. Under these conditions, the binding of the peptide to fibrin was inhibited by nearly 44%.
Binding of radiolabeled DDAVY. . . peptide (approximately 52 pmoles) was mixed with unlabeled DDAVY. . . peptide (approximately 34 nanomoles;=660-fold molar excess over radiolabeled peptide) and the mixture was bound to 0.1 mg/mL fibrin. Under these conditions, the binding of radiolabeled peptide was inhibited by nearly 83%. […] In these experiments and in the experiments conducted in the presence of XIII, binding values were corrected for nonspecific binding observed in the absence of thrombin and/or in the presence of XIII or unlabeled DDAVY. . . peptide alone.

fibrin [2] = molecular target: T1, fibrin; experiment: Fibrin binding of radiolabeled peptides; settings: unbound material analyzed by reverse phase HPLC
Experimental: By reverse phase HPLC, peptides containing portions of the N- and C-terminal amino acid sequences of the DDAVY. . . peptide were separated from the full length DDAVY. . . peptide.
as §1

Factor XIIIa = experiment: Factor XIIIa-catalyzed crosslinking of fibrin II (SDS-PAGE); format: biochemical; settings: human fibrinogen 0.27 mg/mL
Experimental: This example illustrates the effect of DDAVY. . . peptide and NKLIV. . . peptide on fibrin crosslinking by Factor XIIIa. Purified human fibrinogen (0.27 mg/mL) was mixed with increasing concentrations (56 micromolar to 280 micromolar) of the DDAVY. . . peptide and incubated for 15 minutes at 37° C. Then, calcium chloride was added in 0.1M Tris, pH7.4 containing 0.15M NaCl (Tris-buffered saline, TBS) to make the final calcium concentration equal 10 mM. The mixture was then clotted by the addition of 10 U/mL thrombin. Thrombin also served to activate the catalytic amounts of Factor XIII present in the fibrinogen preparation. The mixture was incubated for an additional 15 minutes at 37° C. and then solubilized in SDS-PAGE buffer containing 5% sodium dodecylsulfate (SDS), 4M urea, 10mM Tris, pH7.4, 1.0 mM ethylenediaminetetraacetic acid (EDTA), 1% 2-mercaptoethanol, and 0.001% bromophenol blue. The mixture was boiled for 5 minutes, cooled, and then separated by electrophoresis on a 4-15% linear gradient polyacrylamide gel (SDS-polyacrylamide gel electrophoresis, SDS-PAGE). After electrophoresis, the gel was stained using Coomassie Brilliant Blue and destained. Control incubations were conducted simultaneously that contained no peptide.
The reaction was also conducted as described for the DDAVY. . . peptide, except that NKLIV. . . peptide was substituted for the DDAVY. . . peptide. […]

inhibition of the binding of DDAVY. . . peptide to fibrin (fibrin [1]; 1.0 mg/mL fibrinogen, 5 nanomoles placental Factor XIII, approximately 0.05 nanomoles DDAVY. . . peptide): ~44%
Substance: placental Factor XIII A-chains: purified placental Factor XIII A-chains

binding to fibrin (fibrin [2]): bound to fibrin
inhibition of binding of radiolabeled DDAVY. . . peptide to fibrin (fibrin [1]; 1.0 mg/mL unlabeled peptide, 2.0 micrograms/mL radiolabeled peptide, 0.2 mg/mL fibrin): inhibited completely
inhibition of binding of radiolabeled DDAVY. . . peptide to fibrin (fibrin [1]; approximately 34 nanomoles unlabeled peptide (660-fold molar excess over approximately 52 pmoles radiolabeled), 0.1 mg/mL fibrin): ~83%
Substance: DDAVYLDNEKEREEYVLNDIGVIFYGEVNDIKTRSWSYGQF-amide (DDAVYLDNEKEREEYVLNDIGVIFYGEVNDIKTRSWSYGQF-NH2) [DDAVY. . . peptide]
inhibition of fibrin crosslinking (Factor XIIIa; 280 micromolar peptide): ~50%
concentration at which inhibition of fibrin crosslinking could be detected (Factor XIIIa; 10 U/mL thrombin, 10 mM calcium): around 112 micromolar

inhibition of the binding of DDAVY. . . peptide to fibrin (fibrin [1]; 0.4 mg/mL fibrinogen, 2.0 mg/mL recombinant platelet Factor XIII): 76%
Substance: recombinant platelet Factor XIII: Purified recombinant platelet Factor XIII A-chains

The remaining lines, values behind:

Substance: KTRSWSYGQF [C-terminal portion of the DDAVY. . . peptide separated by HPLC]
binding to fibrin (fibrin [2]): did not bind to fibrin

Substance: GEVNDIKTRSWSYGQF [C-terminal portion of the DDAVY. . . peptide separated by HPLC]
binding to fibrin (fibrin [2]): did not bind to fibrin
